Experiments:
[1] = biological target: T1, Rhs1 D1338N Y1351A Y1375A, C-terminally FLAG-tagged (catalytic-null mutant used for cryo-EM) (Photorhabdus laumondii (P. luminescens …, UniProt Q7N9I0 1-1471, D1338N | Y1351A | Y1375A)); assay: cryo-EM structure; EagR-Strep/Rhs1-FLAG (D1338N, Y1351A, Y1375A) complex purified by StrepTrap and Superose 6; single particle, Talos Arctica 200 kV; 3.72 Å unmasked map, 3.17 Å masked on the Rhs1 shell; EagR dimer homology model fitted in low-resolution density; conditions: both partners purified
T1 construct: Rhs1 (Plu0353) of Photorhabdus laumondii with D1338N (no C-terminal autocleavage) and Y1351A, Y1375A (no toxicity); atomic model built for residues 272-1357; also called Rhs1^FL; source: E. coli BL21(DE3), co-purified with EagR (StrepTrap HP, Superose 6)
T1 sequence (looked up): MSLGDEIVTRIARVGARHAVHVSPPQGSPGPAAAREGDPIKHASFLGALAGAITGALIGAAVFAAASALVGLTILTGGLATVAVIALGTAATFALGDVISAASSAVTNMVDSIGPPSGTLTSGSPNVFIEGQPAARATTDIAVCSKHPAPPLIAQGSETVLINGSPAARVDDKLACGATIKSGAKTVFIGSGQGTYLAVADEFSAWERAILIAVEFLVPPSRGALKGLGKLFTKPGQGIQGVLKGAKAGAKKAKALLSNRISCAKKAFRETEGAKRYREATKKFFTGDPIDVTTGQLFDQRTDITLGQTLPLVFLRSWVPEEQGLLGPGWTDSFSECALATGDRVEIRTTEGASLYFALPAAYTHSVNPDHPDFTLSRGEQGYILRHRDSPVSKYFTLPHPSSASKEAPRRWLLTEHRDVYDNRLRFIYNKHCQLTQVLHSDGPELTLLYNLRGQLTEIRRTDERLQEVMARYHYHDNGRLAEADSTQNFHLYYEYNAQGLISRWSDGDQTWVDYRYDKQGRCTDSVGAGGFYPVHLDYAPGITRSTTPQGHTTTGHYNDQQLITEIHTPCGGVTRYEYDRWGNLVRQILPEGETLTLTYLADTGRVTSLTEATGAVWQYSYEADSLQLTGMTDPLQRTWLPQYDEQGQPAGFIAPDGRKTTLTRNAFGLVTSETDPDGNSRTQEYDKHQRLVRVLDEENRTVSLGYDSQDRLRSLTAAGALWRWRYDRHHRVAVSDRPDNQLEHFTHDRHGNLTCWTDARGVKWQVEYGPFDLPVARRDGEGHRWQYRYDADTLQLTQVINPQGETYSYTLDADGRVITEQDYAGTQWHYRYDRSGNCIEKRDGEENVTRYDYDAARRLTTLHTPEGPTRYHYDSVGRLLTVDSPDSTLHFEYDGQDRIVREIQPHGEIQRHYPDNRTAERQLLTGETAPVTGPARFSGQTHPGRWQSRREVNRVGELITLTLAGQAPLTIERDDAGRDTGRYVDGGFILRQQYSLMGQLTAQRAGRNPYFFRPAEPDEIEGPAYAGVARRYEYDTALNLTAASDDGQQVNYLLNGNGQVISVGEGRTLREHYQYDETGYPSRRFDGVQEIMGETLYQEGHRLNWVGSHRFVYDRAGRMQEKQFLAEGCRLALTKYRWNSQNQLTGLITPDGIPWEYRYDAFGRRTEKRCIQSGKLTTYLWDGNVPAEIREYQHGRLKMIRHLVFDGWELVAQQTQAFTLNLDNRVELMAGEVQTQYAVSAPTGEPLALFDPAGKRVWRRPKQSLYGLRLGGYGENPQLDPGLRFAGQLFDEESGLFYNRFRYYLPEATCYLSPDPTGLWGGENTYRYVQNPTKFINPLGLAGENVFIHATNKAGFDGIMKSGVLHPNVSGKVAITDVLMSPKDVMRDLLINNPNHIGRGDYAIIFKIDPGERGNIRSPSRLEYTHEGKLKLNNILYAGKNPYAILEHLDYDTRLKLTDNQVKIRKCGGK

[2] = biological target: the molecule itself; assay: as above

B1: Photorhabdus laumondii EagR chaperone (Plu0354), C-terminally Strep-tagged (natural protein)
chain: MENTTYQMNEGSLAIPGNWRDESMNVFVLPDDSGINLVVSRTPVPAGMDNPAYYEQTLEQFCTHLPGYQEHQRSEITLSQQPARRLDYQWTSPEGDMYQTVILQIRGPLLLTFNLTSPAPFEAGQRDTLLAIVHSFQAA
notes: Eag (DUF1795) family chaperone EagR of Photorhabdus laumondii, Plu0354; also called ^STEagR; EagR^ST; source: E. coli BL21(DE3), co-produced, in total cell extract; also purified in complexes (Strep-Tactin resin; StrepTrap HP and Superose 6); not shown: Strep-tag, C-terminal, kept
[1]
  binding result: binds
[2]
  binding result: binds
